Experimental data from paper PMC11574045, “A cofactor-induced repressive type of transcription factor condensation can be induced by synthetic peptides to suppress tumorigenesis” (The EMBO Journal, 2024).

Tested on: HEK293FT cells transfected with TF library
Assay: Screening of TF condensates based on fluorescent puncta
Format: cell-based
Details: Figure 1B numerical data; TF library screen, one value per transcriptional factor
How it was run: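 Cells were seeded onto plasmid/PEI-loaded wells (plasmid 1.6 μg/ml final) and grown 60 h. Medium with or without glucose followed for 12 h. Fixed, permeabilized cells were stained against Flag or GAL4 tags, and condensate puncta were quantified from 50 random fields per well.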

Molecule | Z score of condensed fraction
REXO4 (protein, UniProt Q9GZR2 1-422, looked up) RNA exonuclease 4: MGKAKVPASKRAPSSPVAKPGPVKTLTRKKNKKKKRFWKSKAREVSKKPASGPGAVVRPPKAPEDFSQNWKALQEWLLKQKSQAPEKPLVISQMGSKKKPKIIQQNKKETSPQVKGEEMPAGKDQEASRGSVPSGSKMDRRAPVPRTKASGTEHNKKGTKERTNGDIVPERGDIEHKKRKAKEAAPAPPTEEDIWFDDVDPADIEAAIGPEAAKIARKQLGQSEGSVSLSLVKEQAFGGLTRALALDCEMVGVGPKGEESMAARVSIVNQYGKCVYDKYVKPTEPVTDYRTAVSGIRPENLKQGEELEVVQKEVAEMLKGRILVGHALHNDLKVLFLDHPKKKIRDTQKYKPFKSQVKSGRPSLRLLSEKILGLQVQQAEHCSIQDAQAAMRLYVMVKKEWESMARDRRPLLTAPDHCSDDA | -0.3654
BATF2 (protein, UniProt Q8N1L9 1-274, looked up) Basic leucine zipper …: MHLCGGNGLLTQTDPKEQQRQLKKQKNRAAAQRSRQKHTDKADALHQQHESLEKDNLALRKEIQSLQAELAWWSRTLHVHERLCPMDCASCSAPGLLGCWDQAEGLLGPGPQGQHGCREQLELFQTPGSCYPAQPLSPGPQPHDSPSLLQCPLPSLSLGPAVVAEPPVQLSPSPLLFASHTGSSLQGSSSKLSALQPSLTAQTAPPQPLELEHPTRGKLGSSPDNPSSALGLARLQSREHKPALSAATWQGLVVDPSPHPLLAFPLLSSAQVHF | -1.083
RFC1 (protein, UniProt P35251 1-1148, looked up) Replication factor C subunit 1: MDIRKFFGVIPSGKKLVSETVKKNEKTKSDEETLKAKKGIKEIKVNSSRKEDDFKQKQPSKKKRIIYDSDSESEETLQVKNAKKPPEKLPVSSKPGKISRQDPVTYISETDEEDDFMCKKAASKSKENGRSTNSHLGTSNMKKNEENTKTKNKPLSPIKLTPTSVLDYFGTGSVQRSNKKMVASKRKELSQNTDESGLNDEAIAKQLQLDEDAELERQLHEDEEFARTLAMLDEEPKTKKARKDTEAGETFSSVQANLSKAEKHKYPHKVKTAQVSDERKSYSPRKQSKYESSKESQQHSKSSADKIGEVSSPKASSKLAIMKRKEESSYKEIEPVASKRKENAIKLKGETKTPKKTKSSPAKKESVSPEDSEKKRTNYQAYRSYLNREGPKALGSKEIPKGAENCLEGLIFVITGVLESIERDEAKSLIERYGGKVTGNVSKKTNYLVMGRDSGQSKSDKAAALGTKIIDEDGLLNLIRTMPGKKSKYEIAVETEMKKESKLERTPQKNVQGKRKISPSKKESESKKSRPTSKRDSLAKTIKKETDVFWKSLDFKEQVAEETSGDSKARNLADDSSENKVENLLWVDKYKPTSLKTIIGQQGDQSCANKLLRWLRNWQKSSSEDKKHAAKFGKFSGKDDGSSFKAALLSGPPGVGKTTTASLVCQELGYSYVELNASDTRSKSSLKAIVAESLNNTSIKGFYSNGAASSVSTKHALIMDEVDGMAGNEDRGGIQELIGLIKHTKIPIICMCNDRNHPKIRSLVHYCFDLRFQRPRVEQIKGAMMSIAFKEGLKIPPPAMNEIILGANQDIRQVLHNLSMWCARSKALTYDQAKADSHRAKKDIKMGPFDVARKVFAAGEETAHMSLVDKSDLFFHDYSIAPLFVQENYIHVKPVAAGGDMKKHLMLLSRAADSICDGDLVDSQIRSKQNWSLLPAQAIYASVLPGELMRGYMTQFPTFPSWLGKHSSTGKHDRIVQDLALHMSLRTYSSKRTVNMDYLSLLRDALVQPLTSQGVDGVQDVVALMDTYYLMKEDFENIMEISSWGGKPSPFSKLDPKVKAAFTRAYNKEAHLTPYSLQAIKASRHSTSPSLDSEYNEELNEDDSQSDEKDQDAIETDAMIKKKTKSSKPSKPEKDKEPRKGKGKSSKK | 2.906
RARB (protein, UniProt P10826 1-455, looked up) Retinoic acid receptor beta: MTTSGHACPVPAVNGHMTHYPATPYPLLFPPVIGGLSLPPLHGLHGHPPPSGCSTPSPATIETQSTSSEELVPSPPSPLPPPRVYKPCFVCQDKSSGYHYGVSACEGCKGFFRRSIQKNMIYTCHRDKNCVINKVTRNRCQYCRLQKCFEVGMSKESVRNDRNKKKKETSKQECTESYEMTAELDDLTEKIRKAHQETFPSLCQLGKYTTNSSADHRVRLDLGLWDKFSELATKCIIKIVEFAKRLPGFTGLTIADQITLLKAACLDILILRICTRYTPEQDTMTFSDGLTLNRTQMHNAGFGPLTDLVFTFANQLLPLEMDDTETGLLSAICLICGDRQDLEEPTKVDKLQEPLLEALKIYIRKRRPSKPHMFPKILMKITDLRSISAKGAERVITLKMEIPGSMPPLIQEMLENSEGHEPLTPSSSGNTAEHSPSISPSSVENSGVSQSPLVQ | -0.7014
BARHL2 (protein, UniProt Q9NY43 1-387, looked up) BarH-like 2 homeobox protein: MTMEGASGSSFGIDTILSSASSGSPGMMNGDFRPLGEARTADFRSQATPSPCSEIDTVGTAPSSPISVTMEPPEPHLVADATQHHHHLHHSQQPPPPAAAPTQSLQPLPQQQQPLPPQQPPPPPPQQLGSAASAPRTSTSSFLIKDILGDSKPLAACAPYSTSVSSPHHTPKQESNAVHESFRPKLEQEDSKTKLDKREDSQSDIKCHGTKEEGDREITSSRESPPVRAKKPRKARTAFSDHQLNQLERSFERQKYLSVQDRMDLAAALNLTDTQVKTWYQNRRTKWKRQTAVGLELLAEAGNYSALQRMFPSPYFYHPSLLGSMDSTTAAAAAAAMYSSMYRTPPAPHPQLQRPLVPRVLIHGLGPGGQPALNPLSSPIPGTPHPR | 1.061
RFX1 (protein, UniProt P22670 1-979, looked up) MHC class II regulatory …: MATQAYTELQAAPPPSQPPQAPPQAQPQPPPPPPPAAPQPPQPPTAAATPQPQYVTELQSPQPQAQPPGGQKQYVTELPAVPAPSQPTGAPTPSPAPQQYIVVTVSEGAMRASETVSEASPGSTASQTGVPTQVVQQVQGTQQRLLVQTSVQAKPGHVSPLQLTNIQVPQQALPTQRLVVQSAAPGSKGGQVSLTVHGTQQVHSPPEQSPVQANSSSSKTAGAPTGTVPQQLQVHGVQQSVPVTQERSVVQATPQAPKPGPVQPLTVQGLQPVHVAQEVQQLQQVPVPHVYSSQVQYVEGGDASYTASAIRSSTYSYPETPLYTQTASTSYYEAAGTATQVSTPATSQAVASSGSMPMYVSGSQVVASSTSTGAGASNSSGGGGSGGGGGGGGGGGGGGSGSTGGGGSGAGTYVIQGGYMLGSASQSYSHTTRASPATVQWLLDNYETAEGVSLPRSTLYCHYLLHCQEQKLEPVNAASFGKLIRSVFMGLRTRRLGTRGNSKYHYYGLRIKASSPLLRLMEDQQHMAMRGQPFSQKQRLKPIQKMEGMTNGVAVGQQPSTGLSDISAQVQQYQQFLDASRSLPDFTELDLQGKVLPEGVGPGDIKAFQVLYREHCEAIVDVMVNLQFTLVETLWKTFWRYNLSQPSEAPPLAVHDEAEKRLPKAILVLLSKFEPVLQWTKHCDNVLYQGLVEILIPDVLRPIPSALTQAIRNFAKSLESWLTHAMVNIPEEMLRVKVAAAGAFAQTLRRYTSLNHLAQAARAVLQNTAQINQMLSDLNRVDFANVQEQASWVCRCEDRVVQRLEQDFKVTLQQQNSLEQWAAWLDGVVSQVLKPYQGSAGFPKAAKLFLLKWSFYSSMVIRDLTLRSAASFGSFHLIRLLYDEYMYYLIEHRVAQAKGETPIAVMGEFANLATSLNPLDPDKDEEEEEEEESEDELPQDISLAAGGESPALGPETLEPPAKLARTDARGLFVQALPSS | -0.4637
RBM14 (protein, UniProt Q96PK6 1-669, looked up) RNA-binding protein 14: MKIFVGNVDGADTTPEELAALFAPYGTVMSCAVMKQFAFVHMRENAGALRAIEALHGHELRPGRALVVEMSRPRPLNTWKIFVGNVSAACTSQELRSLFERRGRVIECDVVKDYAFVHMEKEADAKAAIAQLNGKEVKGKRINVELSTKGQKKGPGLAVQSGDKTKKPGAGDTAFPGTGGFSATFDYQQAFGNSTGGFDGQARQPTPPFFGRDRSPLRRSPPRASYVAPLTAQPATYRAQPSVSLGAAYRAQPSASLGVGYRTQPMTAQAASYRAQPSVSLGAPYRGQLASPSSQSAAASSLGPYGGAQPSASALSSYGGQAAAASSLNSYGAQGSSLASYGNQPSSYGAQAASSYGVRAAASSYNTQGAASSLGSYGAQAASYGAQSAASSLAYGAQAASYNAQPSASYNAQSAPYAAQQAASYSSQPAAYVAQPATAAAYASQPAAYAAQATTPMAGSYGAQPVVQTQLNSYGAQASMGLSGSYGAQSAAAATGSYGAAAAYGAQPSATLAAPYRTQSSASLAASYAAQQHPQAAASYRGQPGNAYDGAGQPSAAYLSMSQGAVANANSTPPPYERTRLSPPRASYDDPYKKAVAMSKRYGSDRRLAELSDYRRLSESQLSFRRSPTKSSLDYRRLPDAHSDYARYSGSYNDYLRAAQMHSGYQRRM | 0.5955
RBBP8 (protein, UniProt Q99708 1-897, looked up) DNA endonuclease RBBP8: MNISGSSCGSPNSADTSSDFKDLWTKLKECHDREVQGLQVKVTKLKQERILDAQRLEEFFTKNQQLREQQKVLHETIKVLEDRLRAGLCDRCAVTEEHMRKKQQEFENIRQQNLKLITELMNERNTLQEENKKLSEQLQQKIENDQQHQAAELECEEDVIPDSPITAFSFSGVNRLRRKENPHVRYIEQTHTKLEHSVCANEMRKVSKSSTHPQHNPNENEILVADTYDQSQSPMAKAHGTSSYTPDKSSFNLATVVAETLGLGVQEESETQGPMSPLGDELYHCLEGNHKKQPFEESTRNTEDSLRFSDSTSKTPPQEELPTRVSSPVFGATSSIKSGLDLNTSLSPSLLQPGKKKHLKTLPFSNTCISRLEKTRSKSEDSALFTHHSLGSEVNKIIIQSSNKQILINKNISESLGEQNRTEYGKDSNTDKHLEPLKSLGGRTSKRKKTEEESEHEVSCPQASFDKENAFPFPMDNQFSMNGDCVMDKPLDLSDRFSAIQRQEKSQGSETSKNKFRQVTLYEALKTIPKGFSSSRKASDGNCTLPKDSPGEPCSQECIILQPLNKCSPDNKPSLQIKEENAVFKIPLRPRESLETENVLDDIKSAGSHEPIKIQTRSDHGGCELASVLQLNPCRTGKIKSLQNNQDVSFENIQWSIDPGADLSQYKMDVTVIDTKDGSQSKLGGETVDMDCTLVSETVLLKMKKQEQKGEKSSNEERKMNDSLEDMFDRTTHEEYESCLADSFSQAADEEEELSTATKKLHTHGDKQDKVKQKAFVEPYFKGDERETSLQNFPHIEVVRKKEERRKLLGHTCKECEIYYADMPAEEREKKLASCSRHRFRYIPPNTPENFWEVGFPSTQTCMERGYIKEDLDPCPRPKRRQPYNAIFSPKGKEQKT | 0.03488
